Molecular target: A2A adenosine receptor A2AAR N154Q (residues 1-316) (Homo sapiens, UniProt P29274, N154Q)
Assay: SPR

Sequence of A2A adenosine receptor A2AAR N154Q (residues 1-316) (P29274 1-316 N154Q): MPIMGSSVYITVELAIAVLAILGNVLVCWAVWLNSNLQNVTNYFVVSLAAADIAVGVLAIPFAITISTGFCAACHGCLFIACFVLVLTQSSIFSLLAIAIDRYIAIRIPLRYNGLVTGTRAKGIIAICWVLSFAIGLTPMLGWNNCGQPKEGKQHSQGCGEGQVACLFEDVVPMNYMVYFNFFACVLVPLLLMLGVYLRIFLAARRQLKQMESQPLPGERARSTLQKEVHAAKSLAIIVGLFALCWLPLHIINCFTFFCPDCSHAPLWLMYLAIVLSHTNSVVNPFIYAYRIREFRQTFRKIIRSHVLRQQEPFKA

B1: Fab2838, Fab fragment of mouse monoclonal antibody IgG2838 (Fab, V domains shown)
VH: EVQLQQSGAELVKPGSSVKISCKTSGDSFTAYNMNWVKQSHGKSLEWIGNINPYYGSTRYNQKFKGKATLTVDKSSSTAYIQLNSLTSEDSAVYYCAREGNYYDGGSVRYFDYWGQGTTLTVSS
VL: DIVMTQSPASLSASVGDTVTITCRASEFIYSSLTWYQQKQGGSPQLLVYAATNLADAVPSRFSGSGSGTQFSLKINRLQPEDFGTYYCQHFYGSTWAFGGGTKLEIK
For B1, which Kd is on record?
The Kd was 4.4 nM.
